Experiments:
[1] = system: TALEN left arm (pCLS16715) (artificial (Xanthomonas TALE?)); experiment: cell_activity; conditions: paired with right arm P1; 153 of 153 galactose colonies of homozygous sup4-(CAG) diploid yeast show repeat contraction; >99% gene conversion in heterozygous …
[2] = system: TALEN right arm (pCLS9996) (artificial (Xanthomonas TALE?)); experiment: cell_activity; conditions: paired with left arm P2; 153 of 153 galactose colonies of homozygous sup4-(CAG) diploid yeast show repeat contraction; >99% gene conversion in heterozygous …

## GTGATCCCCCCAGCA (double strand) [left TALE target site in sup4-(CAG)]
[1]
  activity: 100%

## GCTGCTGCTGCTGCT (double strand) [right TALE target site in sup4-(CAG)]
[2]
  activity: 100%
